Measured values from PMC3485628.
Where two headings read alike, the source gives them in different places.

Assays:
[1] = biological target: recombinant human perlecan domain 1 proteoglycan rhPln.247 (human) (UniProt P98160); assay: ELISA; rhPln.247 coated directly on polystyrene microtiter wells overnight at 4°C in PBS/N3 at about 1-2 ug/ml; rhBMP-2 or rhBMP-7 serially diluted; retained BMP detected with biotinylated anti-BMP antibodies; background without rhPln.247 subtracted; apparent Kd
[2] = biological target: a commercial source of HSPG; assay: ELISA; capture antibody CSI 001-71 (anti-Pln.D1) coated, then rhPln.247 (1 ug/ml) or HSPG, then dilutions of rhBMP-2; retained BMP detected with anti-BMP antibodies; background subtracted; apparent Kd
[3] = biological target: recombinant human perlecan domain 1 proteoglycan rhPln.247 (human) (UniProt P98160); assay: as above
[4] = biological target: a commercial source of HSPG; assay: as above; remark: listed apart in the source
[5] = biological target: recombinant human perlecan domain 1 proteoglycan rhPln.247 (human) (UniProt P98160); assay: ELISA; rhPln.247 coated directly on polystyrene microtiter wells overnight at 4°C in PBS/N3 at about 1-2 ug/ml; rhBMP-2 or rhBMP-7 serially diluted; retained BMP detected with biotinylated anti-BMP antibodies; background without rhPln.247 subtracted; apparent Kd; remark: listed apart in the source

Sequence of recombinant human perlecan domain 1 proteoglycan rhPln.247 (human) (P98160 22-247): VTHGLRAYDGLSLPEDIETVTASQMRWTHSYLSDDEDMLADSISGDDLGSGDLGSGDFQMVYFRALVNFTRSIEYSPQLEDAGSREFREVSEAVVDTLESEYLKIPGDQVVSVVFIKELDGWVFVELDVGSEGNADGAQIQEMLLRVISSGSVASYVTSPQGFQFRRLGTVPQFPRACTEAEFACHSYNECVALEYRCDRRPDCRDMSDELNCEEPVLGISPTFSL
Sequence of recombinant human bone morphogenetic protein-2 (P12643 283-396): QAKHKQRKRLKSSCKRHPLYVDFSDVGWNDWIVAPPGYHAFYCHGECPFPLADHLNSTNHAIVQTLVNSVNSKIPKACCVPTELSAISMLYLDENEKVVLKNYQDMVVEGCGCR

- Kd [1]: 0.573 nM
- Kd [2]: 150 nM
- Kd [3]: 0.6 nM
- Kd [4]: 0.15 nM
- Kd [5]: 0.4 nM
Substance: recombinant human bone morphogenetic protein-2 (from UniProt P12643 283-396) (ligand)
